Results from patent US20260226133A1.

B1: hA873-G30S vHH (CD33), NLuc fusion (VHH, part only; not given: NLuc luciferase fusion partner, part only)
VHH, part: QVQLVESGGGVVQPGRSLRLSCVASGYTYSINCMGWFRQAPGKGREGIAAISTGGGTTGVADSVKGRFTISQDNAKNTVYLQMNSLRAEDTAMYYCAARSTYSGYACVYSEVNGYNYRGQGTQVTVSS
B2: hu-077-USC1 vHH (CD22), NLuc fusion (VHH, part only; not given: NLuc luciferase fusion partner, part only)
VHH, part: QVQLQESGPGLVKPSQTLSLTCTVSGGSITTGEFYWNWFRQPPGKGLEWMGAIAASGSTTYSPSFESRTSISRDTSKNQFSLKLSSVTAADTAVYYCGRSFGVAAVTTGQNRGQGTLVTVSS

Key:
[1] = target: CD33 (UniProt P20138); assay: Malibu-Glo assay; NLuc fusion supernatant on HL60 cells, control Jurkat cells
Chain of CD33 (P20138 18-364 limits assumed): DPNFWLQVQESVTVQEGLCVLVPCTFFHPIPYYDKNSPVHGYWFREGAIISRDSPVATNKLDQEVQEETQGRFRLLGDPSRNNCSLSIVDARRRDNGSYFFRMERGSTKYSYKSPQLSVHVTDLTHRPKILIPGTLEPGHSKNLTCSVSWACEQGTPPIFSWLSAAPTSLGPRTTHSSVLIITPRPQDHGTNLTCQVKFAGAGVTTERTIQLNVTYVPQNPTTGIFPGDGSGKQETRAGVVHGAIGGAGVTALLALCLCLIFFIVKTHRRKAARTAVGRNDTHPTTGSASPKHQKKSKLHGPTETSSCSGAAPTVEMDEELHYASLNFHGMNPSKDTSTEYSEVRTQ

[2] = target: CD22 (UniProt P20273); assay: Malibu-Glo assay; NLuc fusion supernatant on RAJI cells, control K562 cells
Chain of CD22 (P20273 20-847 limits assumed): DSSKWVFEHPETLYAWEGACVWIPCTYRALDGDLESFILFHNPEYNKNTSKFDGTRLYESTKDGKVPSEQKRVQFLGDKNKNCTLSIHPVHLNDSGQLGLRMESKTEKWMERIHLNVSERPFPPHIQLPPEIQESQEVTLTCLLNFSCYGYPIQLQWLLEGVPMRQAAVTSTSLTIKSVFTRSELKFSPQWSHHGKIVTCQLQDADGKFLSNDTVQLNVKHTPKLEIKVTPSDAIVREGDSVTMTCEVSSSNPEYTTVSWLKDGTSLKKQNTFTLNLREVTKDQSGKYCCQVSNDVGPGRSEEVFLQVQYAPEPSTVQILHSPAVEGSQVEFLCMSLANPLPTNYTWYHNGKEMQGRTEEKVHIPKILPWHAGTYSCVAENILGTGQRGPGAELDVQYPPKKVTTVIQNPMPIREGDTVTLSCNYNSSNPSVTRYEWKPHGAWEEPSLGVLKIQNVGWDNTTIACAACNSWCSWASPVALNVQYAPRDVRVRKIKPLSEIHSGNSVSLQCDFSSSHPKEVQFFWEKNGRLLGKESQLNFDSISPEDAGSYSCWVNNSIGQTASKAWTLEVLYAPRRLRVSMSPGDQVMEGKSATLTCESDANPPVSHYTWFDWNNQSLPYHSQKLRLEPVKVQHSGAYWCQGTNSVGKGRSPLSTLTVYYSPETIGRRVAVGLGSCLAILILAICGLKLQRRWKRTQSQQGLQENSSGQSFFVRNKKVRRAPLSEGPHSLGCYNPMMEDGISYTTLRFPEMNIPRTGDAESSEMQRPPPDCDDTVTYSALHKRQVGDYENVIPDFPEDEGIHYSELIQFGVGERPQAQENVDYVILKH

Binder	Fold Change (Luc activity, target cell line over control cell line) [1]	Fold Change (Luc activity, target cell line over control cell line) [2]
B1	17 fold	–
B2	–	4.32 fold
